How the values were obtained:
huIL-27 [1] = target: T1, huIL-27 (Homo sapiens, UniProt Q14213+Q8NEV9); test: Phospho-STAT3 neutralization assay, mouse spleens, huIL-27; type: cell-based; conditions: mouse spleens; phospho-STAT3; read-out: EC90 concentration
T1 sequence (Q14213 21-229): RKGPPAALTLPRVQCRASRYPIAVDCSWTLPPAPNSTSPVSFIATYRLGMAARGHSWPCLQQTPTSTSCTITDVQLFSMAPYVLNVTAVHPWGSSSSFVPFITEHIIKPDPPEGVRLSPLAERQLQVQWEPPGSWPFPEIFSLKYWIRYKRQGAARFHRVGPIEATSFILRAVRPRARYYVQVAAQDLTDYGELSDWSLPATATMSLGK
T1 sequence (Q8NEV9 29-243): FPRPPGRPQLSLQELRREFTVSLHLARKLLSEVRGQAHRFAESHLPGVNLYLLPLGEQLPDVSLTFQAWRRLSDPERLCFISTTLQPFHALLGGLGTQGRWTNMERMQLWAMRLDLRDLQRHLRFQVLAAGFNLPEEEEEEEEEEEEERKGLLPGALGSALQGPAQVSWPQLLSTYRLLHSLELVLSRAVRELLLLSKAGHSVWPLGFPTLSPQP
Excerpt: (§1) Whole mouse spleens were harvested from C57 B1/6 mice and washed two times with 1×PBS before being plated out at 2×10^5 cells/well in assay media (RPMI 1640 plus 10% fetal bovine serum) in 96-well, round-bottom tissue culture plates. Total human PBMC (peripheral blood mononuclear cells) were thawed from a frozen vial collected from a leukapherisis donation and washed two times with 1×PBS before being plated out at 10^6 cells/well in assay media in 96-well, round-bottom tissue culture plates. […] Following pre-incubation, treatments were added to the plates containing the cells and incubated together at 37° C. for 15 minutes.
(§2) Following incubation, cells were washed with ice-cold wash buffer (BIO-PLEX Cell Lysis Kit, BIO-RAD Laboratories, Hercules, Calif.) and put on ice to stop the reaction according to manufacturer's instructions. […]
(§3) Capture beads (BIO-PLEX Phospho-Stat3 Assay, BIO-RAD Laboratories) were combined with 50 μL of 1:1 diluted lysates and added to a 96-well filter plate according to manufacture's instructions (BIO-PLEX Phosphoprotein Detection Kit, BIO-RAD Laboratories). […] After the final wash, beads were resuspended in 125 μL/well of bead suspension buffer, shaken for 30 seconds, and read on an array reader (BIO-PLEX, BIO-RAD Laboratories) according to the manufacture's instructions. Data were analyzed using analytical softward (BIO-PLEX MANAGER 3.0, BIO-RAD Laboratories). […]

huIL-27 [2] = target: T1, huIL-27; test: Phospho-STAT3 neutralization assay, total human PBMCs, huIL-27; type: cell-based; conditions: total human PBMCs; phospho-STAT3; read-out: EC90 concentration
Excerpt: as §1, §2, §3

BHK-mIL-27R cells = target: T2, BHK-mIL-27R cells (Mus musculus, UniProt O70394); test: Competition binding against 125I-labeled A1426F; conditions: 0.1 nM label; competitor 50 nM to 7.6 pM; 4 hours on ice
T2 construct: expressed in transfected cells; host or cells: BHK cells
T2 sequence (O70394 25-623): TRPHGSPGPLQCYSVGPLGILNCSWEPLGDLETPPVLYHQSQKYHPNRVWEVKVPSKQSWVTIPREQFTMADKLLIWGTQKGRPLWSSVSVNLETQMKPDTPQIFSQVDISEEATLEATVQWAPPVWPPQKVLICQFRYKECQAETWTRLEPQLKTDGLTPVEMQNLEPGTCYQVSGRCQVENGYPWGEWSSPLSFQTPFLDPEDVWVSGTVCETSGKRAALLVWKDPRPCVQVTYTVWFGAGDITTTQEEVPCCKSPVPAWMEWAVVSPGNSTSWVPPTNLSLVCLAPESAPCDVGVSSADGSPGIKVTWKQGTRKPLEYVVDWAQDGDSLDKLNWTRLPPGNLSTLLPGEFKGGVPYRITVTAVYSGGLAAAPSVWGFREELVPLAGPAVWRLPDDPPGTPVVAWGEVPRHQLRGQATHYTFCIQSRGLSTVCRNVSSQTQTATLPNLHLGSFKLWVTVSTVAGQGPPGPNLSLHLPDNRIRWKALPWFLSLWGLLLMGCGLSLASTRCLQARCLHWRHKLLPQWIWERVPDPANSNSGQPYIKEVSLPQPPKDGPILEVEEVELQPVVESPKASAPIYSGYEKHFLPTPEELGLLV
T2 sequence (Q00560 23-917 partner): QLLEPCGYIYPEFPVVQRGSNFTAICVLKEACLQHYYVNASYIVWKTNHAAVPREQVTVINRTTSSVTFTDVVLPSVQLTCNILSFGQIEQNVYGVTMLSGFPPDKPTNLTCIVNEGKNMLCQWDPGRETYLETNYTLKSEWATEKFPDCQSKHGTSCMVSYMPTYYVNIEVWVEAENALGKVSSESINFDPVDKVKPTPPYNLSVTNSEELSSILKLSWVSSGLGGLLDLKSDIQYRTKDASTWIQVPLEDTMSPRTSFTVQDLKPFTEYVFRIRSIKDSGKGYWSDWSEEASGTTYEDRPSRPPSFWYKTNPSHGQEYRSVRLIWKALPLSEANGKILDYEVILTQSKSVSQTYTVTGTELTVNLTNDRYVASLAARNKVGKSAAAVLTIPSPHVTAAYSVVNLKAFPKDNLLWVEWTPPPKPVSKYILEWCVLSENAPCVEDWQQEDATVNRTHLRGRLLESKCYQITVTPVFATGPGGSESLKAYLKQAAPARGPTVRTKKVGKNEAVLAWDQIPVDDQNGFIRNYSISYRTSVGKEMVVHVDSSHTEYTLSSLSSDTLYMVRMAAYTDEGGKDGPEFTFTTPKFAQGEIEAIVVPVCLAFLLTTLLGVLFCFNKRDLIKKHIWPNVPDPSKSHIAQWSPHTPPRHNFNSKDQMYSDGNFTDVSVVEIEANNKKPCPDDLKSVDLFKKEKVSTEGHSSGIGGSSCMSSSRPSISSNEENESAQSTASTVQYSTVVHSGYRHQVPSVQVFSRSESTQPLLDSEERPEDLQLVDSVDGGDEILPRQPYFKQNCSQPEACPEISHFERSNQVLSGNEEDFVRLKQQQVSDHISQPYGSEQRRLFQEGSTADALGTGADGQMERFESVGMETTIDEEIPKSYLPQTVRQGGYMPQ
Description: For competition binding studies, ^125I-labeled A1426F (0.1 nM) was added to preparations of unlabeled A1426F, mouse IL-27 p28 with a C-terminal polyhistidine tag (A1406F), or an unrelated control protein titered from 50 nM to 7.6 pM in 1:3 serial dilutions. These preparations were incubated with BHK-mIL-27R cells for 4 hours on ice. The cells were then washed three times with ice-cold binding buffer, then solublized with 1N NaOH. These lysates were then checked for bound A1426F by checking for radiation with a gamma counter.

EC90 (huIL-27 [1]) [nM]	EC90 (huIL-27 [2]) [nM]	competition with ^125I-labeled A1426F for binding (BHK-mIL-27R cells)	Substance
2	2	–	huIL-27: human IL-27 ligand [reference compound]
–	–	unable to compete	A1406F: mouse IL-27 p28 with a C-terminal polyhistidine tag
